Data as given in paper PMC4838357.

Assays:
Experiment in all cases: MITOMI
[1] = target: Zif268 R14A (mouse, UniProt P08046 333-421, R345A)
[2] = target: Zif268 R70A (mouse, UniProt P08046 333-421, R401A)
[3] = target: Zif268 I28A (mouse, UniProt P08046 333-421, I359A)

Measured: binding result

B1: target_268wt (Zif268 consensus) (dsDNA)
DNA 1: GGCCAATTAGCGTGGGCGTTTTCCGGCGGTATGAC
DNA 2: GTCATACCGCCGGAAAACGCCCACGCTAATTGGCC
binds: all assays above
